Measurements from patent publication US20100151524A1 (DARWIN DISCOVERY, published 2010).

B4: BMP-6 (ligand, UniProt P22004 382-513, looked up)
chain: QQSRNRSTQSQDVARVSSASDYNSSELKTACRKHELYVSFQDLGWQDWIIAPKGYAANYCDGECSFPLNAHMNATNHAIVQTLVHLMNPEYVPKPCCAPTKLNAISVLYFDDNSNVILKKYRNMVVRACGCH

Columns and labels:
BMP-6 [1] = target: B4; assay: ELISA-based competition: sclerostin coated, BMP-6, DAN titrated; competitor sclerostin
BMP-6 [2] = target: B4; assay: ELISA-based competition: sclerostin coated, BMP-6 11 nM; competitor sclerostin
BMP-6 [3] = target: B4; assay: ELISA-based competition: sclerostin coated (300 ng/well), BMP-6 11 nM, receptor-FC titrated; competitor sclerostin
[4] = target: T1, FLAG epitope-tagged Beer (human Beer, secretion signal removed, C-terminal FLAG tag, from … (human, UniProt Q9BQB4 24-213)); assay: anti-FLAG immunoprecipitation of FLAG-tagged Beer incubated with BMP-4, anti-BMP-4 western blot; Cerberus with BMP-4 as positive control on the left part
T1 construct: also called FLAG-Beer; H. Beer
T1 sequence: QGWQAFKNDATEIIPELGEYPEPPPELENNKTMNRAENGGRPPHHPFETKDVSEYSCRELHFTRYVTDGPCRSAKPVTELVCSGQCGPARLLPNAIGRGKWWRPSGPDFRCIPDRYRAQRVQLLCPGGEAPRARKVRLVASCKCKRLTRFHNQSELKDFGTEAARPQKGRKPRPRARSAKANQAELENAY
Protocol: The interaction of Beer with proteins from different phylogenetic arms of the TGF-β superfamily were studied using immunoprecipitation methods. Purified TGFβ-1, TGFβ-2, TGFβ-3, BMP-4, BMP-5, BMP-6 and GDNF were obtained from commerical sources (R&D systems; Minneapolis, Minn.). A representative protocol is as follows. Partially purified Beer was dialyzed into HEPES buffered saline (25 mM HEPES 7.5, 150 mM NaCl). Immunoprecipitations were done in 300 ul of IP buffer (150 mM NaCl, 25 mM Tris pH 7.5, 1 mM EDTA, 1.4 mM β-mercaptoethanol, 0.5% triton×100, and 10% glycerol). […] The proteins were resolved by SDS PAGE and Beer associated BMP-5 was detected by western blot using anti-BMP-5 antiserum (Research Diagnostics, Inc) (see FIG. 5).

BMP-6 [5] = target: B4; assay: ELISA-based competition: sclerostin coated, BMP-6, receptor-FC titrated; competitor sclerostin
Protocol: (§1) A 10-fold molar excess of the BMP receptor was sufficient to reduce binding of sclerostin to BMP-6 by approximately 50%. This competition was also observed with a BMP receptor II-FC fusion protein (IC₅₀=36 nM) and DAN (IC₅₀=43 nM).

[6] = target: T1, FLAG epitope-tagged Beer (human Beer, …); assay: Beer ligand binding assay (FLAG-Beer captured on an anti-FLAG plate, BMP-5 titrated, ELISA detection), FIG. 6
Protocol: FLAG-Beer protein (20 ng) is added to 100 ul PBS/0.2% BSA and adsorbed into each well of 96 well microtiter plate previously coated with anti-FLAG monoclonal antibody (Sigma; St Louis Mo.) and blocked with 10% BSA in PBS. This is conducted at room temperature for 60 minutes. This protein solution is removed and the wells are washed to remove unbound protein. BMP-5 is added to each well in concentrations ranging from […] to 500 nM in PBS/0.2% BSA and incubated for 2 hours at room temperature. The binding solution is removed and the plate washed with three times with 200 ul volumes of PBS/0.2% BSA. BMP-5 levels are then detected using BMP-5 anti-serum via ELISA (F. M. Ausubel et al (1998) Current Protocols in Mol. Biol. Vol 2 11.2.1-11.2.22). Specific binding is calculated by subtracting non-specific binding from total binding and analyzed by the LIGAND program (Munson and Podbard, Anal. Biochem., 107, p 220-239, (1980).

[7] = target: T2, sclerostin (coated on the ELISA surface, Example 12) (Homo sapiens (Human), UniProt Q9BQB4 24-213); assay: ELISA, sclerostin-coated surface (300 ng/well), BMP-6 in solution
T2 construct: also called SOST; Beer
T2 sequence: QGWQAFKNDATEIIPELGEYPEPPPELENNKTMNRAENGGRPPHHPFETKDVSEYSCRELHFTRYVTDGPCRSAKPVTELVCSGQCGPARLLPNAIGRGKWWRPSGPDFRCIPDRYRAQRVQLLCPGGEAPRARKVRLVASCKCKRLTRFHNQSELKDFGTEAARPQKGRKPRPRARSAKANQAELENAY
Protocol: as §1

DAN (competitor in Example 12)
IC50 (BMP-6 [1]): 43 nM

BMP receptor IA (FC fusion construct)
reduction of binding of sclerostin to BMP-6 at a 10-fold molar excess of receptor (BMP-6 [2]): 50% | IC50 (BMP-6 [3]): 114 nM

B1: BMP-4 (ligand, UniProt P12644 293-408, looked up)
chain: SPKHHSQRARKKNKNCRRHSLYVDFSDVGWNDWIVAPPGYQAFYCHGDCPFPLADHLNSTNHAIVQTLVNSVNSSIPKACCVPTELSAISMLYLDEYDKVVLKNYQEMVVEGCGCR
binding result [4]: no binding

B2: BMP receptor II-FC fusion protein (Fc fusion)
chain: SQNQERLCAFKDPYQQDLGIGESRISHENGTILCSKGSTCYGLWEKSKGDINLVKQGCWSHIGDPQECHYEECVVTTTPPSIQNGTYRFCCCSTDLCNVNFTENFPPPDTTPLSPPHSFNRDET
notes: also called BMPR-II; type II receptor; not shown: Fc part and any linker
IC50 (BMP-6 [5]): 36 nM

B3: recombinant human BMP-5 protein (R&D systems) (ligand, UniProt P22003 317-454, looked up)
chain: AANKRKNQNRNKSSSHQDSSRMSSVGDYNTSEQKQACKKHELYVSFRDLGWQDWIIAPEGYAAFYCDGECSFPLNAHMNATNHAIVQTLVHLMFPDHVPKPCCAPTKLNAISVLYFDDSSNVILKKYRNMVVRSCGCH
notes: Commercial protein
Kd [6]: 15 to 30 nM

B4
Kd [7]: 3.4 nM
